This is an account of results in patent US20230392126A1, “TISSUE ORGANOIDS” (priority 2016, published 2023).

Assay [1] is described as follows: Acute drug overdose test: cocaine-induced lethality. It is filed as in vivo, mouse. Conditions: 40, 80, 120, 160 mg/kg cocaine i.p. The procedure:
For all behavioral experiments except where noted, C57BL/6J mice were used. Roughly equal numbers of adult male and female mice were group-housed until surgery. Mice were maintained under controlled temperature and humidity conditions on a 12 h:12 h light:dark cycle (lights on at 7:00). Water and food were available ad libitum. Mice weighed around 25-30 g at the beginning of the experiments. All procedures followed National Institutes of Health Guide for the Care and Use of Laboratory Animal and were approved by the University of Chicago Institutional Animal Care and Use Committee.
Drug: Cocaine HCl and methamphetamine HCl (Sigma-Aldrich, Saint Louis, MO) were dissolved in sterile saline and delivered intraperitoneally at appropriates doses in a volume of 10 mL/kg. […]
Acute drug overdose test: Two weeks after grafting surgery, 4 groups of GhBChE and 4 groups of GWT mice (n=8 each in each group) received i.p. injections of cocaine at 40, 120, and 160 mg/kg. […] Mice were monitored for 2 h following injection and percent of cocaine- and METH-induced lethality was calculated.
To first determine whether engrafting hBChE-expressing cells protects mice from acute systemic toxicity of cocaine, we delivered different doses of cocaine to grafted mice and calculated the lethality rates of cocaine. […]

Assay [2] can be described thus: Acquisition of cocaine conditioned place preference (CPP). It is filed as in vivo, mouse. Conditions: 10 mg/kg cocaine i.p., grafted cocaine-naïve mice. On the procedure: CPP apparatus: The CPP apparatus (FIG. 17; Med Associates, E. Fairfield, VT, USA) consisted of two larger chambers (16.8×12.7×12.7 cm), which were separated by a smaller chamber (7.2×12.7×12.7 cm) as previously described (Yan et al., 2013). […] Time spent in each chamber was measure via photobeam breaks and recorded. CPP was determined on testing days via time spent in the drug-paired side minus time spent in the saline-paired side.
Acquisition of CPP: A biased CPP procedure was used similar to that from a previous study (Yan et al., 2013). Acquisition of CPP consisted of three sequential procedures—pretest, conditioning, and test. […] On Day 6 (test day) mice were allowed to explore the entire chambers for 20 min and time spent in each area was recorded. […]
Next, protection against development of cocaine-seeking was assessed using the conditioned place preference (CPP) paradigm, which is thought to model reward learning and seeking because experimental animals approach and remain in contact with cues that have been paired with the effects of the reward. hBChE-expressing cells were grafted to cocaine-naïve mice with GWT animals as controls. […] As an additional control, ethanol CPP was measured after 4 days of conditioning in GhBChE and GWT mice.

Assay [3] is described as follows: Cocaine hydrolysis activity in vitro (clearance assay with conditioned medium).

B1: hBChE: modified human butyrylcholinesterase (E30-6, SEQ ID NO: 41), cocaine hydrolase, expressed from engineered epidermal cells / skin grafts (protein)
chain: MHSKVTIICIRFLFWFLLLCMLIGKSHTEDDIIIATKNGKVRGMNLTVFGGTVTAFLGIPYAQPPLGRLRFKKPQSLTKWSDIWNATKYANSCCQNIDQSFPGFHGSEMWNPNTDLSEDCLYLNVWIPAPKPKNATVLIWIYGGGFQTGTSSLHVYDGKFLARVERVIVVSMNYRVGALGFLALPGNPEAPGNMGLFDQQLALQWVQKNIAAFGGNPKSVTLFGESSGAASVSLHLLSPGSHSLFTRAILQSGSANAPWAVTSLYEARNRTLNLAKLTGCSRENETEIIKCLRNKDPQEILLNEAFVVPYGTALGVNFGPTVDGDFLTDMPDILLELGQFKKTQILVGVNKDEGTWFLVGGAPGFSKDNNSIITRKEFQEGLKIFFPGVSEFGKESILFHYTDWVDDQRPENYREALGDVVGDYNFICPALEFTKKFSEWGNNAFFYYFEHRSSKLPWPEWMGVMHGYEIEFVFGLPLERRDNYTKAEEILSRSIVKRWANFAKYGNPNETQNNSTSWPVFKSTEQKYLTLNTESTRIMTKLRAQQCRFWTSFFPKVLEMTGNIDEAEWEWKAGFHRWNNYMMDWKNQFNDYTSKKESCVGL
modifications: Human mutant BChE
For B1, in assay [1], the “cocaine-induced lethality in GhBChE mice” value is “nearly lethality”. The “cocaine CPP after 4 days of place conditioning” value in assay [2] is “showed no such preference”. Further, the “cocaine hydrolysis activity of conditioned medium” value in assay [3] is reported as “significantly induced degradation of cocaine in vitro”.
